In patent US20250090688A1 (BROAD INSTITUTE, published 2025):

Experiments:
Assay in all cases: inhibition of transduction of human primary myotubes by virus pre-incubated with recombinant soluble integrin (affinity as inferred by the filing)
[1] = target: T1, recombinant soluble human integrin heterodimer αVβ6 (human, UniProt P06756 31-992; P18564 22-707)
T1 construct: Bought (R&D Systems); also called αVβ6 recombinant protein; αVb6

[2] = target: T2, recombinant soluble human integrin heterodimer αVβ3 (human, UniProt P06756 31-992; P05106 27-718)
T2 construct: Bought (R&D Systems); also called αVβ3 recombinant protein; αVb3

[3] = target: T3, recombinant soluble human integrin heterodimer αVβ8 (human, UniProt P06756 31-992; P26012 43-684)
T3 construct: Bought (R&D Systems); also called αVβ8 recombinant protein; αVb8

[4] = target: T4, recombinant soluble human integrin heterodimer αVβ1 (human, UniProt P06756 31-992; P05556 21-728)
T4 construct: Bought (R&D Systems); also called αVβ1 recombinant protein; αVb1

Measured: binding result

T2 sequence (P06756 31-992 limits assumed, chain 1 of 2): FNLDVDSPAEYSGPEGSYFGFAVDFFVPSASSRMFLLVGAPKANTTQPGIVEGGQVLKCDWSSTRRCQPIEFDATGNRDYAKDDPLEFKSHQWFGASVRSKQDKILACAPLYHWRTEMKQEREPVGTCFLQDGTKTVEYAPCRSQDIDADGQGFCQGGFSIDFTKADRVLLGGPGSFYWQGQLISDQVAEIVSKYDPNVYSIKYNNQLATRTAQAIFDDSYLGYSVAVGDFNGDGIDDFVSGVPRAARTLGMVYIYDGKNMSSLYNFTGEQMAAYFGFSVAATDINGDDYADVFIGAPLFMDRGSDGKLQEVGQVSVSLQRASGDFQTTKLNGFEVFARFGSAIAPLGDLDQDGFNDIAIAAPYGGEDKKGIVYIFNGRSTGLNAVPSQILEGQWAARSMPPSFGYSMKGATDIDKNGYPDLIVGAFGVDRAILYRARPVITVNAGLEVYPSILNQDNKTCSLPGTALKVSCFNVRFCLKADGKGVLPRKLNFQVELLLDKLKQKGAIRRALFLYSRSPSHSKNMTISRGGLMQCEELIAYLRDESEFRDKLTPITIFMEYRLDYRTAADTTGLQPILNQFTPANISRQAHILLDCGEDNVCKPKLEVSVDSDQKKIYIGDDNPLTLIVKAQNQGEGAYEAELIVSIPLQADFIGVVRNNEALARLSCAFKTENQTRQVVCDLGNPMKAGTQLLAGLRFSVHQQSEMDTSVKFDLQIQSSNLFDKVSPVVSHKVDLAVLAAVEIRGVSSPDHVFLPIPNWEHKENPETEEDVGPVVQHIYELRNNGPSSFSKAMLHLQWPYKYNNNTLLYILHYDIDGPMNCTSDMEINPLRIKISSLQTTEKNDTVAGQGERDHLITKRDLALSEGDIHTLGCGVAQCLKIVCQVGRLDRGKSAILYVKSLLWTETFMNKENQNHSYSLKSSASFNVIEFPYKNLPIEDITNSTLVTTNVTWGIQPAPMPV
T2 sequence (P05106 27-718 limits assumed, chain 2 of 2): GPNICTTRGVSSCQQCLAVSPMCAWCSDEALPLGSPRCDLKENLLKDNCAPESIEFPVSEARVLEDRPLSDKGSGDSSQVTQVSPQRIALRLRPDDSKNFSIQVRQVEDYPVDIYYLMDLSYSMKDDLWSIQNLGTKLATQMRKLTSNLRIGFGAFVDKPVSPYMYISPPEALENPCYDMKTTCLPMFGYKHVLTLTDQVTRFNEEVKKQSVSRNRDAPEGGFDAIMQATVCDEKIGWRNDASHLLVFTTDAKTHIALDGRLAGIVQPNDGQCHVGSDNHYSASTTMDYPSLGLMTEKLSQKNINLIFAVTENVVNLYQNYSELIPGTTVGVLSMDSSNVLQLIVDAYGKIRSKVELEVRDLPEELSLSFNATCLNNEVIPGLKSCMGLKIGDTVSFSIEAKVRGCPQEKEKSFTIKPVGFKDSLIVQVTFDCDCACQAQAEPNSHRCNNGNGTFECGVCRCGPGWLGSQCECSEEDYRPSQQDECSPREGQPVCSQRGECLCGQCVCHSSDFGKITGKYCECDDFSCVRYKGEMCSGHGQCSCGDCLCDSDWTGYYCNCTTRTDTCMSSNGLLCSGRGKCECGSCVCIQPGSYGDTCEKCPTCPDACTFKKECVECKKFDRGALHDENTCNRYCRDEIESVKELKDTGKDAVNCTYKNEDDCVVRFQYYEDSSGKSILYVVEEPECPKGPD
T3 sequence (P06756 31-992 limits assumed, chain 1 of 2): as the sequence (P06756 31-992 limits assumed, chain 1 of 2) above
T3 sequence (P26012 43-684 limits assumed, chain 2 of 2): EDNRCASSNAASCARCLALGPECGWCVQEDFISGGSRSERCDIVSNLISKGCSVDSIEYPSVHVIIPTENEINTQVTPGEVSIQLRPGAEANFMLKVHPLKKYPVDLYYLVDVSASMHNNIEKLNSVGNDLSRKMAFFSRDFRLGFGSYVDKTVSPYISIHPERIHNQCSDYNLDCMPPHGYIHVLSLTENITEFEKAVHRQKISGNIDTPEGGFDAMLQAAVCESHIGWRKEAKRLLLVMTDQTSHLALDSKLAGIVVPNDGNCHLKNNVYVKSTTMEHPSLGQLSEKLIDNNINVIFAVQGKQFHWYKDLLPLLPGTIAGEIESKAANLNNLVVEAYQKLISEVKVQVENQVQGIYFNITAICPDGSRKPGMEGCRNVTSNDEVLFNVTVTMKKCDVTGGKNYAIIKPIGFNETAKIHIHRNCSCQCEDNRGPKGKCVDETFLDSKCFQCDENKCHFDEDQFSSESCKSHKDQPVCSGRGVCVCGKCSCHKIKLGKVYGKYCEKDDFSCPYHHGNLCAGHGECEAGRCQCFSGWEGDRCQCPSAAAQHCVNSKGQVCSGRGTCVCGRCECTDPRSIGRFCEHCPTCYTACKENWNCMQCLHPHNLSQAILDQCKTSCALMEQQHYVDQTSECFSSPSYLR
T1 sequence (P06756 31-992 limits assumed, chain 1 of 2): as the sequence (P06756 31-992 limits assumed, chain 1 of 2) above
T1 sequence (P18564 22-707 limits assumed, chain 2 of 2): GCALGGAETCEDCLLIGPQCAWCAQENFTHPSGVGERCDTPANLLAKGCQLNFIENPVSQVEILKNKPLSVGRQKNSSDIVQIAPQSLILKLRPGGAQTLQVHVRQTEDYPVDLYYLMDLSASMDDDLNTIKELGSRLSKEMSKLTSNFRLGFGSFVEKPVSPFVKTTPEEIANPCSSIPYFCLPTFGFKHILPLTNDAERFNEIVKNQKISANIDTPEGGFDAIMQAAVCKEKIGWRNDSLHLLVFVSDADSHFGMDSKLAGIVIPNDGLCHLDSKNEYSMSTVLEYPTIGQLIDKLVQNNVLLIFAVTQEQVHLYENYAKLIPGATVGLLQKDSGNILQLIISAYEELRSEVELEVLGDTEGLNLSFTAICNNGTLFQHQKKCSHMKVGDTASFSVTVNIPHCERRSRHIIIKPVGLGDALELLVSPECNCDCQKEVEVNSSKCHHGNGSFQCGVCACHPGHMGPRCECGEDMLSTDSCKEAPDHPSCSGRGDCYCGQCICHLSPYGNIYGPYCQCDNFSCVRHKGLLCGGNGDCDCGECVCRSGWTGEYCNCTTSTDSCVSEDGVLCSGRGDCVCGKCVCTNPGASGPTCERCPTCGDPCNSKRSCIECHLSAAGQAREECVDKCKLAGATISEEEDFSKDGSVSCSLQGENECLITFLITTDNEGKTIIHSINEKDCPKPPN
T4 sequence (P06756 31-992 limits assumed, chain 1 of 2): as the sequence (P06756 31-992 limits assumed, chain 1 of 2) above
T4 sequence (P05556 21-728 limits assumed, chain 2 of 2): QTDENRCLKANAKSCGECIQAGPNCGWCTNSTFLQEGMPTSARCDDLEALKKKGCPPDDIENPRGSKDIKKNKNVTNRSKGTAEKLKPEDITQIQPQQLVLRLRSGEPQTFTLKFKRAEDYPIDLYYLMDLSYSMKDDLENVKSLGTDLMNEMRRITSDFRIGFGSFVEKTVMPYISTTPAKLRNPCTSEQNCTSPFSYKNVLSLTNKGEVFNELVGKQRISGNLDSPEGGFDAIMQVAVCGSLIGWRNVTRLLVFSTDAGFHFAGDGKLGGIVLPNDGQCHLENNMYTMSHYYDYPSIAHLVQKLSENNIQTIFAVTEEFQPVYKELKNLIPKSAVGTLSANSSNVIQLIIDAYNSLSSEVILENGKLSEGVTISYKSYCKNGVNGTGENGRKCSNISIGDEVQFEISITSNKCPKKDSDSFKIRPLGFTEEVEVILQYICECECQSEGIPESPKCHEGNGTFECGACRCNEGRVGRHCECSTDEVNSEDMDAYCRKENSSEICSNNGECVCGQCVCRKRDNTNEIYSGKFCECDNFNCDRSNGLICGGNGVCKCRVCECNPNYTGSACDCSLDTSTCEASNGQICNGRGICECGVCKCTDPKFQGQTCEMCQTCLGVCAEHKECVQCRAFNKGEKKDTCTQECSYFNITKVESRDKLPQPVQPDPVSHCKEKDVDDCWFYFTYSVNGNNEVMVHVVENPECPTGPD

B1: MyoAAV 2A (other)
chain: MAADGYLPDWLEDNLSEGIREWWALKPGAPQPKANQQHQDNARGLVLPGYKYLGPGNGLDKGEPVNAADAAALEHDKAYDQQLKAGDNPYLKYNHADAEFQERLKEDTSFGGNLGRAVFQAKKRLLEPLGLVEEAAKTAPGKKRPVEQSPQEPDSSAGIGKSGAQPAKKRLNFGQTGDTESVPDPQPIGEPPAAPSGVGSLTMASGGGAPVADNNEGADGVGSSSGNWHCDSQWLGDRVITTSTRTWALPTYNNHLYKQISNSTSGGSSNDNAYFGYSTPWGYFDFNRFHCHFSPRDWQRLINNNWGFRPKRLNFKLFNIQVKEVTDNNGVKTIANNLTSTVQVFTDSDYQLPYVLGSAHEGCLPPFPADVFMIPQYGYLTLNDGSQAVGRSSFYCLEYFPSQMLRTGNNFQFSYEFENVPFHSSYAHSQSLDRLMNPLIDQYLYYLSKTINGSGQNQQTLKFSVAGPSNMAVQGRNYIPGPSYRQQRVSTTVTQNNNSEFAWPGASSWALNGRNSLMNPGPAMASHKEGEDRFFPLSGSLIFGKQGTGRDNVDADKVMITNEEEIKTTNPVATESYGQVATNHQGPGRGDQTTLAQAQTGWVQNQGILPGMVWQDRDVYLQGPIWAKIPHTDGNFHPSPLMGGFGMKHPPPQILIKNTPVPADPPTAFNKDKLNSFITQYSTGQVSVEIEWELQKENSKRWNPEIQYTSNYYKSNNVEFAVNTEGVYSEPRPIGTRYLTRNL
notes: Recombinant AAV particle; also called EMyoAAV; enhanced MyoAAV
binds: [1] | [2] | [3] | [4]
